Measurements: US7405286B2, “Stars—A muscle-specific actin-binding protein” (The Board of Regents of the University of Texas System, priority 2002, dated 2008)
Entries after “also recorded” stand apart in the source; their conditions may differ.

How the values were obtained:
[1] = test system: α-smooth muscle actin promoter; experiment: smooth muscle α actin-luciferase reporter assay in COS cells; type: cell-based
Excerpt: (§1) STARS Expression Plasmids. STARS expression constructs were generated using the pcDNA3.1 mammalian expression vector (Invitrogen) which was modified to contain an amino-terminal Myc-tag. Constitutively active RhoA (L63) and C3 transferase in Prk5 were generously provided by Dr. Alan Hall (University College, London, United Kingdom). The SM22-luciferase reporter 1343 bp promoter has been previously described (Li et al., 1995). The smooth muscle α actin-luciferase reporter contained the 4 kb promoter region ligated into the pBL3basic vector (Promega). The ANF reporter contained the 638 bp promoter region (a generous gift from Dr. Mona Nemer, Universite de Montreal, Montreal, Quebec, Canada). The 4× cfos reporter contained four tandem copies of the cfos CArG box with flanking sequences, as described (Chang et al., 2001). CMV-lacZ (Promega) was used as an internal control for transfection efficiency.
(§2) Transient Transfections, Reporter Assays and Immunofluorescence Microscopy. COS cells were maintained in DMEM with 10% FBS. Eighteen hours after plating, the medium was changed to serum-free medium and transfections were performed at 50% confluency using FuGENE reagent-6 (Roche Molecular Biochemicals) following manufacturer's instructions. […] Cells were harvested 36 hr after transfection and their luciferase and β-galactosidase activity were measured.

SM22 promoter [2] = experiment: SM22-luciferase reporter assay in transiently transfected COS cells; type: cell-based; details: for activation of SM22-luciferase / SRF transcription, in words: STARS and deletion mutants
Excerpt: as §1
(§3) Transient Transfections, Reporter Assays and Immunofluorescence Microscopy. COS cells were maintained in DMEM with 10% FBS. Eighteen hours after plating, the medium was changed to serum-free medium and transfections were performed at 50% confluency using FuGENE reagent-6 (Roche Molecular Biochemicals) following manufacturer's instructions. Each transfection used 0.15 μg of plasmid DNA for the reporter assays, and 0.5-1.0 μg immunohistochemistry. Cytochalasin D 2 μM (Sigma-Aldrich), and Y-27632 75 μM (Tocris) were added directly just after transfection. Latrunculin B 0.5 μM (dissolved in 10% ethanol, Calbiochem) was added 12 hr after transfection and 10% ethanol (final concentration 0.01%) was added to control wells. Cells were harvested 36 hr after transfection and their luciferase and β-galactosidase activity were measured.

[3] = test system: atrial natriuretic factor (ANF) promoter; experiment: ANF reporter assay in COS cells; type: cell-based
Excerpt: as §1, §2

[4] = test system: E1b promoter linked to four tandem copies of the CArG box from the c-fos promoter; experiment: 4× cfos CArG box reporter assay in COS cells; type: cell-based
Excerpt: as §1, §2

F-actin = experiment: Immunofluorescence / Phalloidin-TRITC staining of transfected COS cells; type: cell-based; details: transfected COS cells, Myc-tagged proteins
Procedure: as §3
For measuring immunofluorescence, cells were rinsed with PBS and fixed in 4% paraformaldehyde for 10 min on ice. After rinsing with PBS, COS cells were incubated in 0.1% Triton X-100 in PBS for 5 min on ice. For rat neonatal cardiomyocytes, 1% Triton X-100 in PBS was used. Cells were blocked for 20 min at room temperature in 0.5% BSA in PBS for COS cells and in 1% BSA plus 3% goat serum in PBS for rat cardiomyocytes. Then, cells were incubated with first antibody diluted in 0.5% BSA in PBS for 30-60 min at room temperature or overnight at 4° C. Anti c-myc monoclonal antibody 9E10 (Santa Cruz) was used at a 1:200 dilution. Other antibodies were anti α-actinin monoclonal antibody (1:400; Sigma-Aldrich), α-tubulin antibody (1:2000; Sigma-Aldrich) and anti-vimentin antibody (1:500; Sigma-Aldrich). Secondary antibodies were anti mouse/rabbit IgG FITC or Texas red (Vector) used at a 1:200 dilution incubated with or without Phalloidin-TRITC (1:500; Sigma Aldrich).

SM22 promoter [5] = experiment: SM22-luciferase reporter assay in F9 cells; type: cell-based; details: low endogenous SRF expression
cytomegalovirus promoter = cytomegalovirus promoter reporter assay; type: cell-based; details: data not shown
Excerpt: as §1, §2

actin = experiment: Co-immunoprecipitation of Myc-tagged proteins with actin in COS cells; type: binding; details: anti-Myc immunoprecipitation, anti-actin Western blot
Procedure: Western Blot and Co-immunoprecipitation Assay. Immunoprecipitation and western blot analysis was performed as described previously (Lu et al., 2000). For immunoprecipitation, cells were incubated with 1 μg anti c-myc polyclonal antibody A14 (Santa Cruz). Western blots were performed with anti-actin monoclonal antibody C4 (1:100; Roche Molecular Biochemicals) or anti c-myc monoclonal antibody 9E10 (1:1000; Santa Cruse) followed by incubation with secondary antibody HRP-conjugated anti mouse-IgG (Santa Cruse, Vector). To detect signals, blots were incubated with ECL (Santa Cruz) for 1 min, and exposed to film (Eastman Kodak Co).

Row | Molecule | activation of SM22-luciferase / SRF transcription, in words (SM22 promoter [2]; COS cells) | association with F-actin / actin stress fibers (F-actin) | bundling of actin stress fibers (F-actin) | co-immunoprecipitation with actin (actin) | other results
1 | STARS: novel 375-amino acid muscle-specific actin-binding protein, expressed from a Myc-tagged expression vector (protein, UniProt Q8BUZ1 1-375, looked up, Myc tag) Actin-binding Rho-activating …: MAPGEREREAGPAKSALRKVRTATLVINLARGWQQWANENSTKQAQEPAGWLPGATHDLPNAPKEAGPYQHAPKTLSPKPDRDGEGQHSEEATEVSHIKRKEVTRTVVSKAYERGGDVNYLSHRYENDGGVSEAIQPENDIDRILLSHDSPTRRRKCTNLVSELTKGWKVMEQEEPTWKSDSVDTEDSGYGGDMEERPEQDAAPVAPARIKRPLLSQANRYSETLNCKAHRKYSQVDNLKGRWQQWADEHVQSQKLNPFSDEFDYDLAMSTRLHKGDEGYGRPKEGSKTAERAKRAEEHIYREIMELCFVIRTMARHRRDGKIQVTFGELFDRYVRISDKVVGILMRARKHGLVHFEGEMLWQGRDDHVVITLLE | activate SRF transcription | strongly colocalized with F-actin | induced stress fiber formation and bundling | co-immunoprecipitated with actin | stimulation of α-smooth muscle actin promoter [1]: weakly stimulated; activation of the SM22 promoter (SM22 promoter [2]; COS cells, STARS or RhoA (L63) expression vector alone): comparable levels; increase of SM22 promoter activity by STARS (SM22 promoter [2]; COS cells, in the presence of CD (2 μM)): 18 fold; responsiveness of SM22 promoter with mutated CArG boxes (SM22 promoter [2]; COS cells, mutSM22 reporter): abolished responsiveness; stimulation of expression of SM22 luciferase reporter (SM22 promoter [2]; transiently transfected COS cells, STARS expression vector): 40 fold; stimulation of ANF promoter [3]: did not stimulate; also recorded: could not activate; activation of E1b promoter with four c-fos CArG boxes [4]: activated; association with F-actin / actin stress fibers (F-actin; listed as STARS (wt)): strongly associates with F-actin; bundling of actin stress fibers (F-actin; listed as STARS (wt)): induces extremely thick bundles; bundling of actin stress fibers (F-actin; listed as Wild type STARS): induce actin bundles; effect on the SM22 promoter (SM22 promoter [5]): minimal effect; activation of cytomegalovirus promoter (cytomegalovirus promoter): did not activate
2 | N100: STARS deletion mutant lacking residues from the carboxy-terminus into the conserved region (protein, left off: small tags and cut ends, STARS deletion mutant lacking residues from the carboxy-terminus into the conserved region) MAPGEKESGEGPAKSALRKIRTATLVISLARGWQQWANENSIRQAQEPTGWLPGGTQDSPQAPKPITPPTSHQKAQSAPKSPPRLPEGHGDGQSSEKAPE | – | did not affect the association with F-actin | abolished the ability of STARS to bundle actin stress fibers | did not bind actin | –
3 | Del234-247: small internal STARS deletion mutant within the conserved region (protein, left off: small tags and cut ends, small internal STARS deletion mutant within the conserved region) MAPGEKESGEGPAKSALRKIRTATLVISLARGWQQWANENSIRQAQEPTGWLPGGTQDSPQAPKPITPPTSHQKAQSAPKSPPRLPEGHGDGQSSEKAPEVSHIKKKEVSKTVVSKTYERGGDVSHLSHRYERDAGVLEPGQPENDIDRILHSHGSPTRRRKCANLVSELTKGWRVMEQEEPTWRSDSVDTEDSGYGGEAEERPEQDGVQVAVVRIKRPLPSQVNRFTEKLNCRWQQWADEHIQSQKLNPFSEEFDYELAMSTRLHKGDEGYGRPKEGTKTAERAKRAEEHIYREMMDMCFIICTMARHRRDGKIQVTFGDLFDRYVRISDKVVGILMRARKHGLVDFEGEMLWQGRDDHV | activate SRF transcription | – | induce actin bundles | weak actin-binding activity | –
4 | N101-233: STARS deletion mutant lacking residues from the carboxy-terminus into the conserved region (protein, left off: small tags and cut ends, STARS deletion mutant lacking residues from the carboxy-terminus into the conserved region) VSHIKKKEVSKTVVSKTYERGGDVSHLSHRYERDAGVLEPGQPENDIDRILHSHGSPTRRRKCANLVSELTKGWRVMEQEEPTWRSDSVDTEDSGYGGEAEERPEQDGVQVAVVRIKRPLPSQVNRFTEKLNC | – | did not affect the association with F-actin | abolished the ability of STARS to bundle actin stress fibers | did not bind actin | –
5 | Del263-279: small internal STARS deletion mutant within the conserved region (protein, left off: small tags and cut ends, small internal STARS deletion mutant within the conserved region) MAPGEKESGEGPAKSALRKIRTATLVISLARGWQQWANENSIRQAQEPTGWLPGGTQDSPQAPKPITPPTSHQKAQSAPKSPPRLPEGHGDGQSSEKAPEVSHIKKKEVSKTVVSKTYERGGDVSHLSHRYERDAGVLEPGQPENDIDRILHSHGSPTRRRKCANLVSELTKGWRVMEQEEPTWRSDSVDTEDSGYGGEAEERPEQDGVQVAVVRIKRPLPSQVNRFTEKLNCKAQQKYSPVGNLKGRWQQWADEHIQSQKLHKGDEGYGRPKEGTKTAERAKRAEEHIYREMMDMCFIICTMARHRRDGKIQVTFGDLFDRYVRISDKVVGILMRARKHGLVDFEGEMLWQGRDDHV | activate SRF transcription | – | induce actin bundles | weak actin-binding activity | –
6 | C142: STARS deletion mutant that encoded only the conserved carboxy-terminal region (142 amino acids) (protein, left off: small tags and cut ends) KAQQKYSPVGNLKGRWQQWADEHIQSQKLNPFSEEFDYELAMSTRLHKGDEGYGRPKEGTKTAERAKRAEEHIYREMMDMCFIICTMARHRRDGKIQVTFGDLFDRYVRISDKVVGILMRARKHGLVDFEGEMLWQGRDDHV | as effective as the full-length protein; also recorded: activate SRF transcription | associated with F-actin | increased stress fibers; also recorded: induce actin bundles | co-immunoprecipitated with actin | –
7 | Del248-262: small internal STARS deletion mutant within the conserved region (protein, left off: small tags and cut ends, small internal STARS deletion mutant within the conserved region) MAPGEKESGEGPAKSALRKIRTATLVISLARGWQQWANENSIRQAQEPTGWLPGGTQDSPQAPKPITPPTSHQKAQSAPKSPPRLPEGHGDGQSSEKAPEVSHIKKKEVSKTVVSKTYERGGDVSHLSHRYERDAGVLEPGQPENDIDRILHSHGSPTRRRKCANLVSELTKGWRVMEQEEPTWRSDSVDTEDSGYGGEAEERPEQDGVQVAVVRIKRPLPSQVNRFTEKLNCKAQQKYSPVGNLKGNPFSEEFDYELAMSTRLHKGDEGYGRPKEGTKTAERAKRAEEHIYREMMDMCFIICTMARHRRDGKIQVTFGDLFDRYVRISDKVVGILMRARKHGLVDFEGEMLWQGRDDHV | activate SRF transcription | – | induce actin bundles | weak actin-binding activity | –
